Residue numbers refer to the chain shown, from its start. In names and notes the source's numbering stands. One block for each molecule: values may come before it.
Columns and labels:
[1] = system: Acremonium strictum strain T1 gluco-oligosaccharide oxidase GOOX-T1; settings: cited from earlier work
[2] = system: Acremonium strictum gluco-oligosaccharide oxidase (GOOX); settings: oxidation of maltose, Fan et al. (2000); cited from earlier work
[3] = target: T1, Acremonium strictum gluco-oligosaccharide oxidase GOOX-VN (type strain CBS 346.70, V38 and N388), SEQ ID NO. 2 (Sarocladium strictum, UniProt D7PF15, A38V/S388N); assay: Enzymatic assay, kinetic analysis (chromogenic H2O2 assay) of GOOX-VN; settings: 37° C., pH 8.0
T1 sequence (D7PF15 1-474 A38V/S388N): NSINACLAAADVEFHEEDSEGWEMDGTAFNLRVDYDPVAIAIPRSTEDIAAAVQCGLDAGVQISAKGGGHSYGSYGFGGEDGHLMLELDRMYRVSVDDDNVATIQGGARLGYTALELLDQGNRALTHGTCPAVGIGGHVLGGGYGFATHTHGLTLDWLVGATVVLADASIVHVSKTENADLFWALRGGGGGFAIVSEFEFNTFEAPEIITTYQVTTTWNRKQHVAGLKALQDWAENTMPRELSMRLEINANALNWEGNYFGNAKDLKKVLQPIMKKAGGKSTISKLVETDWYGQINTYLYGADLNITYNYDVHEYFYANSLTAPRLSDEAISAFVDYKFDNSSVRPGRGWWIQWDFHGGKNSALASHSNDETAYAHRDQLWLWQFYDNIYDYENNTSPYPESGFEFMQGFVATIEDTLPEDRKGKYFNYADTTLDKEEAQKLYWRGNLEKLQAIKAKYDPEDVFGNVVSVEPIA
Procedure: (§1) A chromogenic assay was used to measure hydrogen peroxide production (15). Reactions contained 0.1 mM 4aminoantipyrine (4AA), 1 mM phenol, 0.5 U horseradish peroxidase, 40 mM Tris-HCl (pH 8.0), and different substrates were initiated by adding 0.2 μg of enzymes to the 250 μL reaction mixture. The production of H2O2 was coupled to the oxidation of 4aminoantipyrine by horseradish peroxidase and detected at 500 nm. Reactions were incubated at 37° C. for 15 min to measure the specific activity of GOOX on 10 mM of monosaccharide or 1 mM of oligosaccharide.
(§2) At least 12 substrate concentrations were included to obtain kinetic parameters for each substrate. Initial rates were obtained by measuring reaction products every 30 s for 15 min at 37° C. and pH 8.0, and kinetic parameters were calculated using the Michaelis-Menten equation (GraphPad Prism5 Software).

[4] = target: T2, Acremonium strictum gluco-oligosaccharide oxidase GOOX-VN variant 1 Y300A, SEQ ID NO. 6 (Sarocladium strictum, UniProt D7PF15, A38V/S388N/Y300A); assay: Enzymatic assay, kinetic analysis (chromogenic H2O2 assay) of Y300A; settings: 37° C., pH 8.0
T2 sequence (D7PF15 1-474 A38V/Y300A/S388N): T1 sequence (D7PF15 1-474 A38V/S388N) with Y300A
Procedure: as §1, §2

[5] = target: T3, Acremonium strictum gluco-oligosaccharide oxidase GOOX-VN variant 2 Y300N, SEQ ID NO. 7 (Sarocladium strictum, UniProt D7PF15, A38V/S388N/Y300N); assay: Enzymatic assay, kinetic analysis (chromogenic H2O2 assay) of Y300N; settings: 37° C., pH 8.0
T3 sequence (D7PF15 1-474 A38V/Y300N/S388N): T1 sequence (D7PF15 1-474 A38V/S388N) with Y300N
Procedure: as §1, §2

[6] = Effect of deglycosylation with PNGaseF on enzyme activity; format: biochemical; settings: 10 mM maltose, 15 min at 37° C., duplicate
Procedure: Approximately 2 μg of purified enzyme was treated with PNGaseF (New England Biolabs) using denaturing and native conditions. Samples that were deglycosylated using denaturing conditions were analysed by SDS PAGE, while samples deglycosylated using native conditions were used to evaluate the impact of glycosylation on enzyme activity. The activity of enzymes was measured on 10 mM maltose at 37° C. for 15 min. (Table 7). N-glycosylation was predicted by NetNGlyc (http://www.cbs.dtu.dk/services/NetNGlyc/) while O-glycosylation was predicted by OGPET (http://ogpet.utep.edu/OGPET/).

[7] = Kinetic analyses, all tested substrates; format: biochemical; settings: all tested monosaccharides and oligosaccharides
Procedure: as §1, §2

[8] = Chromogenic H2O2 oxidase assay on mannose
Procedure: as §1
An additional eight mutations, identified as Y72F, Y72A, E247A, E314A, W351A, N388S, Q353N, Q384A, were created in GOOX-VN to assess the influence of these residues on the substrate selectivity of GOOX-VN. […] The specific activity of each mutant was then measured at 37° C. for 15 min using 10 mM mono-sugars and 1 mM oligosaccharides as performed for Y300A, Y300N, and W351F (Table 11).

[9] = substrate: CC(=O)N[C@H]1C(O)O[C@H](CO)[C@@H](O)[C@@H]1O; assay: purified protein, by the assay type; settings: other: 37° C., pH 8.0
Procedure: as §1, §2

[10] = substrate: OC1OC[C@@H](O)[C@H](O)[C@H]1O; assay: purified protein, by the assay type; settings: other: 37° C., pH 8.0
Procedure: as §1, §2

[11] = substrate: OC1OC[C@@H](O[C@@H]2OC[C@@H](O)[C@H](O)[C@H]2O)[C@H](O)[C@H]1O; assay: purified protein, by the assay type; settings: other: 37° C., pH 8.0
Procedure: as §1, §2

[12] = substrate: OC1OC[C@@H](O[C@@H]2OC[C@@H](O[C@@H]3OC[C@@H](O)[C@H](O)[C@H]3O)[C@H](O)[C@H]2O)[C@H](O)[C@H]1O; assay: purified protein, by the assay type; settings: other: 37° C., pH 8.0
Procedure: as §1, §2

[13] = substrate: OC[C@H]1OC(O)[C@H](O)[C@@H](O)[C@@H]1O; assay: purified protein, by the assay type; settings: other: 37° C., pH 8.0
Procedure: as §1, §2

[14] = substrate: OC[C@H]1OC(O)[C@H](O)[C@@H](O)[C@H]1O; assay: purified protein, by the assay type; settings: other: 37° C., pH 8.0
Procedure: as §1, §2

[15] = substrate: OC[C@H]1O[C@@H](O[C@H]2[C@H](O)[C@@H](O)C(O)O[C@@H]2CO)[C@H](O)[C@@H](O)[C@@H]1O; assay: purified protein, by the assay type; settings: other: 37° C., pH 8.0
Procedure: as §1, §2

[16] = substrate: OC[C@H]1O[C@@H](O[C@H]2[C@H](O)[C@@H](O)[C@H](O[C@H]3[C@H](O)[C@@H](O)C(O)O[C@@H]3CO)O[C@@H]2CO)[C@H](O)[C@@H](O)[C@@H]1O; assay: purified protein, by the assay type; settings: other: 37° C., pH 8.0
Procedure: as §1, §2

[17] = substrate: OC[C@H]1O[C@H](O[C@H]2[C@H](O)[C@@H](O)C(O)O[C@@H]2CO)[C@H](O)[C@@H](O)[C@@H]1O; assay: purified protein, by the assay type; settings: other: 37° C., pH 8.0
Procedure: as §1, §2

[18] = Chromogenic H2O2 oxidase assay / kinetic analysis on NAG
Procedure: as §1, §2

[19] = Chromogenic H2O2 oxidase assay / kinetic analysis on xylose
Procedure: as §1, §2

[20] = Chromogenic H2O2 oxidase assay / kinetic analysis on glucose
Procedure: as §1, §2

[21] = Chromogenic H2O2 oxidase assay / kinetic analysis on maltose
Procedure: as §1, §2

[22] = Chromogenic H2O2 oxidase assay / kinetic analysis on galactose
Procedure: as §1, §2

[23] = Chromogenic H2O2 oxidase assay / kinetic analysis on xylobiose
[24] = Chromogenic H2O2 oxidase assay / kinetic analysis on cellobiose
Procedure: as §1, §2

[25] = Chromogenic H2O2 oxidase assay / kinetic analysis on xylotriose
Procedure: as §1, §2

[26] = Chromogenic H2O2 oxidase assay / kinetic analysis on cellotriose
Procedure: as §1, §2

Molecule: OC[C@H]1O[C@H](O[C@H]2[C@H](O)[C@@H](O)C(O)O[C@@H]2CO)[C@H](O)[C@@H](O)[C@@H]1O (stereo partly shown) [Maltose, maltose]
kcat ([1]; recombinant GOOX-T1): 361 min⁻¹ | Km, pH dependence [2]: highest at pH 9 | kcat [3]: 360.0 ± 5.1 min⁻¹ | kcat ([3]; listed as maltose): 360.0 min⁻¹

Molecule: OC[C@H]1O[C@@H](O[C@H]2[C@H](O)[C@@H](O)[C@H](O[C@H]3[C@H](O)[C@@H](O)C(O)O[C@@H]3CO)O[C@@H]2CO)[C@H](O)[C@@H](O)[C@@H]1O (stereo partly shown) [Cellotriose, cellotriose]
catalytic efficiency (in words) ([1]; native GOOX purified from A. strictum T1): highest | kcat [4]: 666.9 ± 9.5 min⁻¹ | kcat [5]: 599.0 ± 4.9 min⁻¹

Activity, Deglycosylated ([6]; deglycosylated with PNGaseF (native conditions)): 3.9 nmol/min | Activity, Glycosylated ([6]; glycosylated enzyme): 4.09 nmol/min | activity on mannose (in words) [8]: low activity
B1: Acremonium strictum gluco-oligosaccharide oxidase GOOX-VN variant 1 Y300A, SEQ ID NO. 6 (Sarocladium strictum; A38V/S388N/Y300A) (protein)
chain: T1 sequence (D7PF15 1-474 A38V/S388N) with Y300A
catalytic activity (kcat) relative to GOOX-VN [7]: approximately two times higher | Specific activity Defined substrate concentration ([8]; 10 mM mannose, 37° C., 15 min): 0.11 µmol/mg/min | Km [9]: 92.4 ± 4.65 mM | kcat [9]: 12.8 ± 0.223 s⁻¹ | kcat/Km [9]: 138 ± 6.67 M⁻¹ s⁻¹ | Km [10]: 51.84 ± 1.90 mM | Km [11]: 5.11 ± 0.15 mM | Km [12]: 3.15 ± 0.11 mM | Km [13]: 8.11 ± 0.40 mM | Km [14]: 96.39 ± 5.15 mM | Km [15]: 0.24 ± 0.02 mM | Km [16]: 0.25 ± 0.02 mM | Km [17]: 11.00 ± 0.53 mM | kcat [17]: 10.4 ± 0.123 s⁻¹ | kcat/Km [17]: 947 ± 46.7 M⁻¹ s⁻¹ | Specific activity Defined substrate concentration ([18]; 10 mM NAG, 37° C., 15 min): 1.1 µmol/mg/min | Specific activity From Vmax ([18]; substrate NAG): 12.67 µmol/mg/min | Specific activity Defined substrate concentration ([19]; 10 mM xylose, 37° C., 15 min): 1.57 µmol/mg/min | Specific activity From Vmax ([19]; substrate xylose): 11.22 µmol/mg/min | Specific activity Defined substrate concentration ([20]; 10 mM glucose, 37° C., 15 min): 7.15 µmol/mg/min | Specific activity From Vmax ([20]; substrate glucose): 13.09 µmol/mg/min | Specific activity Defined substrate concentration ([21]; 1 mM maltose, 37° C., 15 min): 0.85 µmol/mg/min | Specific activity From Vmax ([21]; substrate maltose): 10.31 µmol/mg/min | Specific activity Defined substrate concentration ([22]; 10 mM galactose, 37° C., 15 min): 1.15 µmol/mg/min | Specific activity From Vmax ([22]; substrate galactose): 13.17 µmol/mg/min | Specific activity Defined substrate concentration ([23]; 1 mM xylobiose, 37° C., 15 min): 2.10 µmol/mg/min | Specific activity From Vmax ([23]; substrate xylobiose): 13.16 µmol/mg/min | Specific activity Defined substrate concentration ([24]; 1 mM cellobiose, 37° C., 15 min): 10.72 µmol/mg/min | Specific activity From Vmax ([24]; substrate cellobiose): 13.58 µmol/mg/min | Specific activity Defined substrate concentration ([25]; 1 mM xylotriose, 37° C., 15 min): 3.22 µmol/mg/min | Specific activity From Vmax ([25]; substrate xylotriose): 13.73 µmol/mg/min | Specific activity Defined substrate concentration ([26]; 1 mM cellotriose, 37° C., 15 min): 9.03 µmol/mg/min | Specific activity From Vmax ([26]; substrate cellotriose): 11.00 µmol/mg/min

Source: patent US20140057332A1, “GLUCO-OLIGOSACCHARIDE OXIDASES FROM ACREMONIUM STRICTUM AND USES THEREOF” (The Governing Council of the University of Toronto, priority 2011, published 2014)
